Assay results taken from the supplement of paper PMC7877785.
± gives the uncertainty stated by the source.

Assay: self-splicing fitness, log relative to wild type (ln ratio); higher = more splicing; Tetrahymena group I intron in knt gene, E. coli kanamycin selection, DiMSum; sequences stand for … in CUCUCU…GGAGGGAAAAGUUAUCAGGCAUGCACCUGGUAGCUAGUCUUUAAACCAAUAGAUUGCAUCGGUUUAAAAGGCAAGACCGUCAAAUUGCGGGAAAGGGGUCAACAGCCGUUCAGUACCAAGUCUCAGGGGAAACUUUGAGAUGGCCUUGCAAAGGGUAUGGUAAUAAGCUGACGGACAUGGUCCUAACCACGCAGCCAAGUCCUAAGUCAACAGAUCUUCUGUUGAUAUGGAUGCAGUUCACAGACUAAAUGUCGGUCGGGGAAGAUGUAUUCUUCUCAUAAGAUAUAGUCGGACCUCUCCUUAAUGGGAGCUAGCGGAUGAAGUGAUGCAACACUGGAGCCGCUGGGAACUAAUUUGUAUGCGAAAGUAUAUUGAUUAGUUUUGGAGUACUCGUGGUCG
Procedure, shortened: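 A randomised library covering all eight P1ex-region intron nucleotides was built with the intron in the knt kanamycin-resistance gene on pET-22b(+) and held in E. coli BL21(DE3). Cells were grown overnight at 37°C or 30°C on LB agar, with or without 25 μg/mL kanamycin, plus 100 μg/mL carbenicillin, 50 μM IPTG and 0.2% rhamnose, and pooled colonies were amplicon-sequenced on an Illumina HiSeq 2500. DiMSum fitness is the error-weighted combination of wild-type-normalised replicate fold changes, kanamycin versus none.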

Sequence | self-splicing fitness (ln) (30 °C) | self-splicing fitness (ln) (37 °C)
GAGUAGCAAUAUUACGGACC | -1.29 ± 0.21 | -0.248 ± 0.22
CAUUAGCAAUAUUACGAGUA | -1.59 ± 0.23 | -1.84 ± 0.27
CGCUAGCAAUAUUACGUUCG | -1.46 ± 0.067 | -0.781 ± 0.089
AGCAAGCAAUAUUACGCCAU | -3.14 ± 0.18 | -1.63 ± 0.13
CUAUAGCAAUAUUACGGAUG | -0.942 ± 0.11 | -0.343 ± 0.11
CUGGAGCAAUAUUACGUAAU | -2.46 ± 0.29 | 
GUCCAGCAAUAUUACGCACA | -1 ± 0.16 | 0.0214 ± 0.12
GUACAGCAAUAUUACGCGCU | -1.36 ± 0.13 | -0.689 ± 0.19
UACUAGCAAUAUUACGCUUU | -2.09 ± 0.11 | -2.16 ± 0.17
CUUGAGCAAUAUUACGACCA | -1.41 ± 0.32 | 
CCAAAGCAAUAUUACGUGGA | -3.55 ± 0.15 | -2.81 ± 0.21
GCAGAGCAAUAUUACGACAU | -3.172 ± 0.023 | -2.06 ± 0.037
CGGAAGCAAUAUUACGUAAA | -2.94 ± 0.21 | -1.79 ± 0.23
AUCGAGCAAUAUUACGUCAC |  | -1.29 ± 0.45
CGGAAGCAAUAUUACGUUGC | -3.59 ± 0.26 | -2.69 ± 0.48
AUGGAGCAAUAUUACGUUAC | -3.1 ± 0.25 | 
CUGAAGCAAUAUUACGGAUG | -2.18 ± 0.1 | -1.14 ± 0.1
CUCCAGCAAUAUUACGUCGU | -3.07 ± 0.12 | -2.72 ± 0.18
AAACAGCAAUAUUACGAGAC | -3.96 ± 0.25 | -2.66 ± 0.25
CCAGAGCAAUAUUACGGAUG | -2.56 ± 0.15 | -1.3 ± 0.18
AAUAAGCAAUAUUACGUGCG | -1.1 ± 0.065 | -0.488 ± 0.083
GAAUAGCAAUAUUACGUCUU | -0.449 ± 0.059 | 0.342 ± 0.074
GUAGAGCAAUAUUACGCGCG | -0.605 ± 0.07 | -0.12 ± 0.094
UCGCAGCAAUAUUACGUGAU | -2.2 ± 0.25 | -3.26 ± 0.35
CCGGAGCAAUAUUACGCCUA | -2.12 ± 0.26 | -2.59 ± 0.29
UUAAAGCAAUAUUACGUAGU | -3.87 ± 0.21 | -1.9 ± 0.18

Sequence | self-splicing fitness (ln) (30 °C) | self-splicing fitness (ln) (37 °C)
GGCCAGCAAUAUUACGAGCU | -2.58 ± 0.4 | 
ACUUAGCAAUAUUACGACCA | -0.584 ± 0.12 | -1.01 ± 0.12
ACGCAGCAAUAUUACGGAUG | -3.06 ± 0.15 | -1.67 ± 0.14
GGUAAGCAAUAUUACGGGGA |  | -2.42 ± 0.33
AGUAAGCAAUAUUACGAAUU | -2.92 ± 0.42 | 
GAAGAGCAAUAUUACGAUCC | -1.84 ± 0.39 | 
ACUCAGCAAUAUUACGAUUA | -0.552 ± 0.065 | -0.431 ± 0.067
CAGUAGCAAUAUUACGGUUU | -3.21 ± 0.22 | -0.724 ± 0.15
CCUAAGCAAUAUUACGUAGC | -4.03 ± 0.34 | -2.21 ± 0.23
UCUCAGCAAUAUUACGGCUG | -2.11 ± 0.13 | -2.21 ± 0.28
AAGUAGCAAUAUUACGUGAA | -2.36 ± 0.12 | -1.78 ± 0.13
CGCAAGCAAUAUUACGUAUG | -2.25 ± 0.091 | -0.723 ± 0.091
AUGUAGCAAUAUUACGGGUC | -3.49 ± 0.4 | -2.95 ± 0.43
UGUCAGCAAUAUUACGUUCA | -0.292 ± 0.1 | -0.052 ± 0.14
GAGCAGCAAUAUUACGAUCU | -1.71 ± 0.15 | -0.141 ± 0.12
GAAUAGCAAUAUUACGGCAA | -0.403 ± 0.14 | -0.118 ± 0.14
ACUCAGCAAUAUUACGCAUG | -2.09 ± 0.15 | -2.23 ± 0.15
AGUAAGCAAUAUUACGCAGA | -3.22 ± 0.36 | -2.67 ± 0.29
UUGAAGCAAUAUUACGAGGA | -2.32 ± 0.16 | -0.555 ± 0.19
UACCAGCAAUAUUACGGCUU | -0.562 ± 0.061 | 0.59 ± 0.097
GCACAGCAAUAUUACGCGAC | -1.75 ± 0.13 | -1.18 ± 0.16
AAAUAGCAAUAUUACGGGUU | -1.92 ± 0.14 | -0.924 ± 0.2
AGGGAGCAAUAUUACGAUUC | -3.76 ± 0.35 | -2.41 ± 0.29
ACGCAGCAAUAUUACGGAUU | -2.19 ± 0.08 | -0.83 ± 0.085
GGCGAGCAAUAUUACGAGUA | -1.9 ± 0.35 | -1.99 ± 0.22
GAUCAGCAAUAUUACGUGCA | -0.293 ± 0.072 | -0.489 ± 0.085

Sequence | self-splicing fitness (ln) (30 °C) | self-splicing fitness (ln) (37 °C)
UCGUAGCAAUAUUACGCCUU | -2.21 ± 0.13 | -0.619 ± 0.13
AUGUAGCAAUAUUACGUCAC |  | -2.81 ± 0.47
GACUAGCAAUAUUACGCGGC | -3.16 ± 0.38 | 
UCACAGCAAUAUUACGAUUU | -4.01 ± 0.21 | -0.814 ± 0.11
CAUAAGCAAUAUUACGCUUG | -3.08 ± 0.29 | -3.01 ± 0.25
AGUAAGCAAUAUUACGAUAG | -3.75 ± 0.33 | -2.86 ± 0.31
UGCCAGCAAUAUUACGGGUG | -2.99 ± 0.13 | -2.98 ± 0.17
ACGGAGCAAUAUUACGCCAG | -4.18 ± 0.43 | -1.11 ± 0.39
CUACAGCAAUAUUACGCCUC | -3.9 ± 0.3 | -0.901 ± 0.34
UGUAAGCAAUAUUACGGUUU | -2.96 ± 0.16 | -1.68 ± 0.18
UCGCAGCAAUAUUACGAUUA | -1.06 ± 0.11 | -0.805 ± 0.11
UUUAAGCAAUAUUACGUAAC | -3.67 ± 0.29 | -2.17 ± 0.19
GACAAGCAAUAUUACGCAGA | -3.04 ± 0.18 | -1.83 ± 0.14
UUAGAGCAAUAUUACGGGGU | -2.83 ± 0.3 | -2.06 ± 0.46
AGCAAGCAAUAUUACGGUAU | -2.35 ± 0.075 | -0.546 ± 0.068
AUACAGCAAUAUUACGAAAA | -2.58 ± 0.26 | -1.4 ± 0.18
AACAAGCAAUAUUACGAGCU | -0.919 ± 0.056 | -0.357 ± 0.073
UUUUAGCAAUAUUACGUGGA | -2.5 ± 0.18 | -0.992 ± 0.11
UUAUAGCAAUAUUACGCACA | -0.698 ± 0.085 | 0.287 ± 0.084
UAGUAGCAAUAUUACGGCCU | -0.563 ± 0.15 | -0.218 ± 0.24
AAUCAGCAAUAUUACGCCGA | -1.17 ± 0.09 | -0.332 ± 0.11
AUACAGCAAUAUUACGUCGC | -2.42 ± 0.13 | -3.06 ± 0.26
CGCCAGCAAUAUUACGGUGA | -1.98 ± 0.11 | -1.84 ± 0.11
GUGCAGCAAUAUUACGCGCA | -2.62 ± 0.27 | 
GCCGAGCAAUAUUACGUGGG | -4.56 ± 0.42 | -2.85 ± 0.27
CGCAAGCAAUAUUACGCUUA | -3.58 ± 0.35 | -1.8 ± 0.18
